In a protein production outcome set (Wang et al. 2014):

Assay: label from the status in PepcDB records
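Also: failed if final PepcDB status was selected cloned or expressed and not failed if soluble or beyond.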

Sequence	protein production
MRDRVRWRVLSLPPLAQWREVMAALEVGPEAALAYWHRGFRRKEDLDPPLALLPLKGLREAAALLEEALRQGKRIRVHGDYDADGLTGTAILVRGLAALGADVHPFIPHRLEEGYGVLMERVPEHLEASDLFLTVDCGITNHAELRELLENGVEVIVTDHHTPGKTPPPGLVVHPALTPDLKEKPTGAGVAFLLLWALHERLGLPPPLEYADLAAVGTIADVAPLWGWNRALVKEGLARIPASSWVGLRLLAEAVGYTGKAVEVAFRIAPRINAASRLGEAEKALRLLLTDDAAEAQALVGELHRLNARRQTLEEAMLRKLLPQADPEAKAIVLLDPEGHPGVMGIVASRILEATLRPVFLVAQGKGTVRSLAPISAVEALRSAEDLLLRYGGHKEAAGFAMDEALFPAFKARVEAYAARFPDPVREVALLDLLPEPGLLPQVFRELALLEPYGEGNPEPLFLLFGAPEEARRLGEGRHLAFRLKGVRVLAWKQGDLALPPEVEVAGLLSENAWNGHLAYEVQAVDLRKPEALEGGIAPFAYPLPLLEALARARLGEGVYVPEDNPEGLDYARKAGFRLLPPEEAGLWLGLPPRPVLGRRVEVALGREARARLSAPPVLHTPEARLKALVHRRLLFAYERRHPGLFSEALLAYWEVNRVQEPAGSP	not failed
MRDTLPEWYKTKKNICDQMTEEINLWGYDMIETPTLEYYETVGVVSAILDQQLFKLLDQQGNTLVLRPDMTAPIARLVASSLKDRAYPLRLAYQSNVYRAQQNEGGKPAEFEQLGVELIGDGTASADGEVIALMIAALKRAGLSEFKVAIGHVGYVNALLMDVVGNEQRADRLRRFLYEKNYVGYREHVKSLNLSTIDKSRLMNLLSLRGGRAAIEEARGLIQTEKGKTALAEMTKLYEVLESYGASEYVKFDLTLVLHMSYYTGVVFEGYGNRLGVPLCSGGRYDELLSKFHRPAQATGFGVRIDLLVEALNGEIISN	not failed
MRDYATTAAGFDLQRTAAATLSGTLQALNACVECCDRHALPGRIALFWEGKDGSRASYTFSELKALSGRFANFLQAQGVRPGDCVAGLLPRTPELLVTILGAWRLGAVYQPLFTAFGPKAIEHRVATAGSKVLVTDAANRDKLDELADPPLAVTVGGPKGQGIRRGDFSFWAELERYPAEFEPVPRSGEDPFLMMFTSGTTGLAKPVPVPLKAILAFVGYLREAVDLRPEDAFWNLADPGWAYGLYYAVAGPLAMGHPTTFYEGPFSVESTCRIIRDYGITNLAGSPTAYRLLMAAGAAAETALKGRLRAVSSAGEPLTPEVIRWFADRLGTTIHDHYGQTELGMVLCNHHALAHPVRVGAAGFACPGHRVVVLDDDLNELPPGQPGILALDRRRSPLMWFPGYQGLETAAFVGDYYLSGDTVELNEDGSISFVGRADDVITTSGYRVGPFDVESALIEHPAVMEAAVIGKPDPERTELVKAFVVLCAGHRPTPELADALQRYVRQRLSAHAYPREIEFLEELPKTPSGKIQRFLLRNQEIARQREAAPRAAAAN	failed
MREESIGRIAKDFLGHEGFQLTEWGGGNLNYLYRVDSTKESYILKYAPPYIRCLGEGYPLSSERLRYEILGLKAANETIPEFAPKLFYVAKEGVVMEYLEGFKLLRQAFIQGEKIPHLAEHLAEMLARFLVKNSFWALNEGERKKLLEQSENSLMRRLSEDYIFTFPFMEHPTNQKNPTSAPSVREIHQDKEWLGAILWLKSRFSTAKEGLLHGDLHTGSLMIKGEQIKMIDFEFSFVGPLSFDLGAILANWLIAYRTHKERGEVGGYSQWLREEMEEFIERFKEQFEFWAGEHGAPQIGIKGYLEALLIEAWGMAGVKIARRILGAAGVEDITSLESPLKEEVERRLLVLSREMTLRAALGIIPIQKGGREAYSWLF	failed
MREGSCPRLARCPGANWGHGRILHTRLHLASLPRPCYFFVTAYINGRETITASCKRSGVSPIPFRPMSPDFPLAPLDLAIIVGYFAVVGIIGYVVAQRIESGEDLFLAGRTLTWGTIGFSLFASNISSTTLIGLAGDAYRTGIAVSNYEWMAGIVLVFIAVFFVPFFIRSGLTTIPEYLEKRFDVRSRKYFSGLTIFTSVIIDTAGGIYAGTLVIKTFFPDLIPGMGPEMDFYVTCFILALIAGVYTAAGGLAAVVYTDILQAVILLVGSVFIAGITFAEFDFSWAQATAQLPEGHLSLMRPMGAEGLPWLGTLVGVPILGFYYWGLNQYIVQRILGARDLDNARWGAMLGGLLKLLPLFIMVLPGAFALQLYPDLGNPDQVFPTLVTDLLPVGIVGLVMAGLIAAIMSTIDSTLNSASTLITIDFVKPRWPDLTPQQVGTVGRVTTIILMLFAAVWAPQIREFPGLWSYIQSVLSYLVPPVVAVFLLGIFWPRTNGSGAFATLLGGHALSIAVFLCAQDGLLFADAPIDLHFTIIAGILTALCLGMLVAFSLTLGPPPAEEEIDDLTWANRVLETGPAMAWYKNYRVHAATVLALTAVMLVVFW	failed
MRELLKVTLIVMLVLINAFFVACEFAMVKLRSSRIDTMITEGNNNAKRCKIIKDNLNSYLSACQLGITLCSLALGWMGESTVKELILPIVSVFNLSESIIYTISISISFLIITMMEVVIGELVPKALALYNTEKIMLSTSFLLVGFYKLTYPIIYFFNLSTDLFLKPFGYSQADEVDEPHTGDEIRLLVEESYKSGLIDESEQRLVDNIFEFEEKKIREIMVPRTDMVCIYESDSEEKILAILKEEGVTRYPVCRKNKDDILGFVHIRDLYNQKINENKIELEEILRDIIYISENLTIDKALERIRKEKLQLAIVVDEYGGTSGVVTIEDILEEIVGEIQDEFDKEETHIKKIGAGSYLVDGTESINYINKYFGLDIEHDGFDSIGGWISYMLGSNIKVNQSVTFENYNFTILELDKLRVVKLIIKSVI	failed
MREPYYKKLLGIKNYLIRKNYPEELEILIPKYVEENKELRGCIDCLSCLSVCPAREVSDYPGPTFMRQLARFAFDKRDEDGREITAYFENIYNCTTCAKCVEVCPKEIDIVHRAIEKLRALAFSKGYLEHHHHHH	failed
MRFIITLFLILQLTTLAFSAHSRDKIGLVLSGGGAKGSAHIGVLKVLEQHNIPIDYVVGTSIGAYVGGMYALGYEVSEIEAIMLGMPWDESYSDFIPRESLAYDKKQHRDRYNISIRLGYSDGEFKVPHGLLLGQSAYQILQRSTDTVRSFDSFDDLAIPYRAVASDIATAKMVVLDSGSINEAMKASAAVPGIVAAVEIDGKTLVDGGITNNMPIDVIKAMGADIVIAIDIGSPLAEQSELTSTVSVLNQLSTILTNNTSLAQKALLTDKDILLRPAIDKLSTTDWSVMPEALKLGEQEAQAQSQALMKLAISDVDYQAYKNQKKLKAKKWFDALPRHITKIKINNNSKVENDIIEKVFAVELGKKLTKEALDLAINRVYALDKFEQVTVEFDDSPEGRIITLTTQAKSWGPNYFDFGFNLKTDFSDQSITSINMSYLMTNVSMNGGRWLNELELGWESLLASEFYQPLDHSHDIYSRARVSFAQDKWEKTSFREELRNEYYQATLALGYDYSFKGIIELGVIAETGDLSLDKPGTDDFDYDSYGSFITFGYDTLDSINFPTNGNKLLIEVKWLKDEYSPQLSDVEKDTATTFALDWRGAIGIRGHTFVGIASFATIDNESDFSVHVTELGGFLNLSGYQEDALIGVHKVFAAVVYQYDLGREIPGGSGLPIYLGTSLEAGNVWGGEDRIRYNDLISSGSIYLGTDTSFGPAVLGMGFATSGEHSFFLSIGKNW	failed
MRFSQLLLALCCLTFGAQADVFIKQEDMDLKQALEAIAKDMQLKLVSDIDSKTSSQPITQTLSGSGPMLLSKLSSVFDFDWYTFGGTLTIQSGQQYANYTYKPKNISPSQLLSEMKGAFKTNSTTKIKLVERGHSLLFSGTRKFVNDAMGYASMVDRNQFLEKGNNLEVARIEFNYVSVMDRNIATYDGQVNFPGAQSLIAAAITNIGQFTNLNDEELTSRAYRVKLSQGEKQALEEDEKSTKVQALPGTNALLIRGTQEEVKLAKRIAALIDVKRRQLLFSLKVYDISAERKENLGIDSGWLNGNRGIYDIVVPPFTETKDFVKNFQALYSNGIARSVYETNLVALENQQSQFGKKQTATLTLISDKQVKTEKIEADNSLYVTGRLLPSGQVQARIQYVEESLDEDDNEDSNRPPRVSSQSLNSEVYIQPNQTVILGGFDNTVTQQQESGVPIISSIPLLGELFKYTSESKHKYKRYVSISFQVIE	failed
MRFSYIEPRAKYLISKLSKIWVFYIFLSFVVIGGLVWFMHNAIKSTQDNASSLTIQERLYRHEISRLQVKTDETLKLIKEAKKRLNYNDDIRDVLQGLLNIVPDSITINSIEIDQQSVVVSGKTPSKEAFYFLFQNKLNPMFDYSRAEFFPLSDGWFNFVSTNFSNSLLIKNPESIK	failed
MRGANERKTERARGLRQSDNDAEALLWSELRDRRLNGFKFVRQVAVGPYFADFACRDERLVVEVDGSQHQIGSGDARRDKFMVMNGWSVLRFWNTDIFNDRAAVLETIVAVLEKRLVREVRSADLTFIPGEKKR	not failed
MRGEGRRIGAMSETPEIPGSGYRTGEALLRAGDIAGAITAFRGHLAASPDDALGWFALGSALFFAQRWEETRAAYARAAAIDRAYTLGGLLRPGDVETALDPAPFLGQLPEMSMIIPPAHSGPLAVVGCDSAYFLDFGAALALSMDKAAPGWGLHLHLIAPTTPALDLLERLIGGLRAITLSFSLEHLPPALRAPEAQRTYLACLRFMRLPAILDEQQARAGRVPVVVLDADSLMCKPLLGPDDWRPPGPEGGWRAGWDVALKDSGLFPLGPLWRYSASCVGLAPTDEARAFAAHVATLLARQALTVNGLGWMIDQFALAVAIAARQTQSPAFRLGDWPDRLYRLYENPPDAALWSFCSQSKYDDRLYRDMVRLLLAEMG	failed
MRGKRGFFGHADSRVRLFCRRLTGKQRILLAGTASFLLAASCLYSILSCVSRFGEPGQRPAMGHIRSVVFRPERTRNIHSNIHKHENGLSENQGTARSVK	failed
MRGMAANQGERIRRRLSTGERREQLLSVGARLFSESPYDEVWIEQVAEIAGVSRGLLYHYFPNKRDFFAAVVERESERMLRMTAAVPGVPVREQLTAGLDAYLEYVRAHAHGYRAFHRADAAGDRAVRRVYQKALAAQERQILAALAADPEFGPAFEERGDVRLAVRGWLAFTTAVCLEWLRDPEPAREQVRDLCARALLGAVAP	not failed
MRGPFMGFSIEFGEANLDKLGVRRTSERVSQPPLTLKNYALSRSIGRGNTSDVRLATGPDGREVAIKLPLPATLRQHDAAERFGNEVRLTLQFRHPHVVRGFAGTPFGPGAFLALFYYPDGPLSNRLRGQPLPNEEALRILADIAAALAYLHRLGAVHQDVKPQNVYVSGGRAALGDLGSAYFVAQGSKTSGSPYYMAPEVYHGESTSSASDVYSLGVMAWELLTGARPFSGNSYEELMVAHLSRFPAPLASLRPELPRALSRLLDRTFAKRPHERPTADALRRALLEALGETPQEEDLPAEEVPLASQQAGRHTAAPRVTGPQGPAETPAQPERVRPARRGWNPFRRKG	failed
MRGRFFFRSFEATLIGSEFLVSPETPGTRFAKAPSFRSKTEKDLCSAHGAAASGVLPLGLLEELVRSSPRSSQASGPAGSRQPAQRAPGHQVPAAKMLELLVASLSLALAFFALLDGWYLVRVPCAVLRARLLQPRVRDLLAEQRYAGRVLPSDLDLLLHMNNARYLREADVARAAHLTRCGVLGALRDLNAHTVLAASCARYRRSLRLFEPFEVHTRLQGWDDRAFYLEARFVSLRDGFVCALLRFRQHVLGTSPDRVVQHLCKRRVEPPELPEDLKHWISYNETSSQLLRAESGLSDRKDQ	failed
